# Source: US20160090640A1
# Biological target: GII.4 norovirus
# Assay: capture on a column of Con A-linked resin, real-time RT-PCR; the dilution applied held about 3.39 copies/µL; no Ct value in the non-Con A-linked resin
substance,measurement,value
"Concanavalin A (Con A) (Sigma-Aldrich, USA) (from UniProt P02866 30-281)",virus concentrated through the Con A-linked resin column,2.16 copies/µL
